Measured values as given in article doi:10.1101/2022.05.20.492803.

Molecular target: GST protein (free GST, cleaved from GST-tagged proteins)
Assay: SAXS

**Q.** Which stoichiometry N does the source give for “GST protein (free GST, cleaved from GST-tagged proteins) (enzyme)” here?
**A.** The stoichiometry N was 2.
